Measured values taken from patent publication US20250049935, “BOTTLEBRUSH CONJUGATES FOR USE AS OLIGONUCLEOTIDE ENHANCERS” (Northeastern University, published 2025).

Target: alpha thrombin (Homo sapiens, UniProt P00734;P00734 P00734:328-363,P00734:364-622)
Assay: MST; 20 mM HEPES pH 7.4, 150 mM NaCl, 2 mM CaCl2, 0.05% Tween; 10 nM thrombin

B1: HD1 (structured_DNA)
DNA: GGTTGGTGTGGTTGG
- Kd: 5.4 nM
